Experimental data taken from patent publication US20210284724A1 (I MAB BIOPHARMA US, published 2021).

T1: human CXCL13 (human, UniProt O43927 23-109)
T1 construct: also called huCXCL13; rhCXCL13
T1 sequence (looked up): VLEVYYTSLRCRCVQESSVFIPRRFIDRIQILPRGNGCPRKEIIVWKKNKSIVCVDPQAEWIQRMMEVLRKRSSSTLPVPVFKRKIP


Assays:
human CXCL13 [1] = target: T1, human CXCL13; experiment: cell-based blocking ELISA, CXCL13 to CHO-K1-CXCR5
Procedure: This example tested the blocking of the anti-CXCL13 chimeric antibodies to CHO-K1-CXCR5 cells. Briefly, 5×10⁴ CHO-K1-CXCR5 cells were plated in 96-well plate with 100 μl of culture medium and incubated at 37° C. overnight. Cells were fixed with 100 μl of 2% PFA at RT for 1 hr after washing with PBS for 1 time. Samples were blocked with 1% BSA in PBST for 1 hr at RT. Antibodies were serial diluted from 50 μg/ml by 3-fold with 1% BSA/PBST and pre-incubated with equal volume of 0.3 μg/ml human CXCL13 for 30 min at RT. 100 μl of antibody-antigen complex was transferred into each cell wells for 30 min at RT. Samples were washed with 1×PBST for 3 times and 100 μl of 3 μg/ml of human Mab5261 antibody was added into each well to capture human CXCL13 and anti-human Fc-HRP was used to indirectly detect human CXCL13 when it bound to CHO-K1-CXCR5 cells.
Then read at 450 nm. […] Among all clones, 415A3D1, 64C10G1, 1H3A11, 414D10F5, 411A11E9, 21H12D9, 71F4A3, 329F2E1 show completely blocking activity and 408E3F3, 19H7E10, 339A6E7 appeared to be partial blockers.

human CXCL13 [2] = target: T1, human CXCL13; experiment: SPR Biacore, off-rate ranking of Fabs
human CXCL13 [3] = target: T1, human CXCL13; experiment: SPR Biacore 8K, Fab over immobilised CXCL13
Procedure: Among all humanized Fab samples, 71F4A3-VH2VL1, 71F4A3-VH1VL1 (Hz71F4), 71F4A3-VH1VL2, 71F4A3-VH3VL1, 411A11E9-VH1VL4, 411A11E9-VH3VL4, 411A11E9-VH2VL4, 411A11E9-VH3VL2, 411A11E9-VH1VL2, 21H12D9-VH1VL1, 21H12D9-VH2VL2, 21H12D9-VH3VL3, 21H12D9-VH1VL2, 64C10G1-VH1VL3, 64C10G1-VH1VL4, 64C10G1-VH1VL1, 64C10G1-VH1VL2 were selected to test affinity by Biacore 8K. 10 mM HEPES, 150 mM NaCl, 3 mM EDTA, 0.05% Tween-20, pH 7.4 served as running buffer and 10 mM glycine-HCl, pH2.0 served as regeneration buffer. CXCL13 protein were immobilized on Sensor Chip CM5 using amine coupling method (immobilization level ˜250RU). The serial concentrations of Fab (0-20 nM) were injected over immobilized CXCL13 at the flow rate of 30 μl/min. The dissociation phases were 600s.

human CXCL13 [4] = target: T1, human CXCL13; experiment: ELISA binding, Fab
human CXCL13 [5] = target: T1, human CXCL13; experiment: cell-based blocking assay, CXCL13 to CXCR5 cells
How it was run: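 To obtain IC50, a titration of humanized Fabs was tested against human CXCL13 binding to CHO-K1 cells expressing CXCR5. The cells (5×10⁴/well) were plated overnight at 37° C, fixed with 2% PFA and blocked with 1% BSA in PBST, then given 100 μl of Fab mixed with an equal volume of 0.3 μg/ml CXCL13 after a 30 min pre-incubation at room temperature. After 30 min on the cells and three PBST washes, bound CXCL13 was captured with 3 μg/ml human anti-CXCL13 antibody, detected with anti-human Fc-HRP and read at 450 nm.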

human CXCL13 [6] = target: T1, human CXCL13; experiment: SPR Biacore 8K, Fab over immobilised CXCL13; remark: listed apart in the source
Procedure: HuCXCL13 binding affinity by Surface Plasmon Resonance. 411A11E9, 415A3D1, 64C10G1, 21H12D9, 329F2E1, 71F4A3 were selected to produce Fab and tested binding affinity. The binding of the antibodies to huCXCL13 was examined by Biacore 8K. 10 mM HEPES, 150 mM NaCl, 3 mM EDTA, 0.05% Tween-20, pH 7.4 served as running buffer and 10 mM glycine-HCl, pH2.0 served as regeneration buffer. CXCL13 protein was immobilized on Sensor Chip CM5 using amine coupling method (immobilization level ˜30RU). The serial concentrations of Fab (0-16 nM) were injected over immobilized CXCL13 at the flow rate of 30 μl/min. The dissociation phases were 600s.

Binder | IC50 (human CXCL13 [1]) | Kd (human CXCL13 [2]) | koff (human CXCL13 [2]) | kon (human CXCL13 [2]) | Kd (human CXCL13 [3]) | koff (human CXCL13 [3]) | kon (human CXCL13 [3]) | EC50 (human CXCL13 [4]) | IC50 (human CXCL13 [5]) | Kd (human CXCL13 [6]) | koff (human CXCL13 [6]) | kon (human CXCL13 [6])
71F4A3-VH2VL1 (Fab, V domains shown, Humanized Fab, human gamma 1 and kappa constant domains) VH: EVQLVQSGGGLVQPGGSLRLSCAASGIDFSRYWMSWVRQAPGKGLEWVAEINPDSSTINYAPSLKDRFTISRDNAKNSLYLQMNSLRAEDTAVYYCARQDDYEYYAMDYWGQGTTVTVSS VL: DIQMTQSPSSLSASVGDRVTITCKASQDVNTGVAWYQQKPGKAPKLLIYSASYRYTGVPSRFSGSGSGTDFTFTISSLQPEDIATYYCQQYYSTPLTFGGGTKLEIK |  | 0.554 nM | 0.00108 s⁻¹ | 1.95e+06 M⁻¹ s⁻¹ | 0.853 nM | 0.00145 s⁻¹ | 1.7e+06 M⁻¹ s⁻¹ | 0.819 nM | 10.5 nM |  |  | 
64C10G1-VH1VL3 (Fab, V domains shown, Humanized Fab, human gamma 1 and kappa constant domains; also called 64C10G1-VH1VL3(Fab)) VH: EVQLVESGGGLVQPGGSLRLSCAASGFTFSSYAMSWVRQAPGKGLEWVATISDGGSDAYYPDNVKGRFTISRDNAKNSLYLQMNSLRAEDTAVYYCARDYYGSGYEDSPMDYWGQGTLVTVSS VL: DIQMTQSPSSLSASVGDRVTITCKASQDINKYIAWYQQKPGKAPKLLIHYTSTLQPGIPSRFSGSGSGTDFTFTISSLQPEDFATYYCLQYDNLYTFGGGTKLEIK |  | 2.98 nM | 0.00543 s⁻¹ | 1.82e+06 M⁻¹ s⁻¹ | 2.98 nM | 0.00543 s⁻¹ | 1.82e+06 M⁻¹ s⁻¹ | 1.07 nM | 7.69 nM |  |  | 
64C10G1-VH1VL4 (Fab, V domains shown, Humanized Fab, human gamma 1 and kappa constant domains; also called 64C10G1-VH1VL4(Fab)) VH: EVQLVESGGGLVQPGGSLRLSCAASGFTFSSYAMSWVRQAPGKGLEWVATISDGGSDAYYPDNVKGRFTISRDNAKNSLYLQMNSLRAEDTAVYYCARDYYGSGYEDSPMDYWGQGTLVTVSS VL: DIQMTQSPSSLSASVGDRVTITCKASQDINKYIAWYQQKPGKAPKLLIHYTSTLQPGIPSRFSGSGSGTDYTFTISSLQPEDFATYYCLQYDNLYTFGGGTKLEIK |  | 3.68 nM | 0.00713 s⁻¹ | 1.94e+06 M⁻¹ s⁻¹ | 3.68 nM | 0.00713 s⁻¹ | 1.94e+06 M⁻¹ s⁻¹ | 0.784 nM | 6.88 nM |  |  | 
64C10G1-VH1VL1 (Fab, V domains shown, Humanized Fab, human gamma 1 and kappa constant domains; also called 64C10G1-VH1VL1(Fab)) VH: EVQLVESGGGLVQPGGSLRLSCAASGFTFSSYAMSWVRQAPGKGLEWVATISDGGSDAYYPDNVKGRFTISRDNAKNSLYLQMNSLRAEDTAVYYCARDYYGSGYEDSPMDYWGQGTLVTVSS VL: DIQMTQSPSSLSASVGDRVTITCKASQDINKYIAWYQQKPGKAPKLLIYYTSTLQPGVPSRFSGSGSGTDFTFTISSLQPEDIATYYCLQYDNLYTFGGGTKLEIK |  | 5.89 nM | 0.0255 s⁻¹ | 4.33e+06 M⁻¹ s⁻¹ | 5.89 nM | 0.0255 s⁻¹ | 4.33e+06 M⁻¹ s⁻¹ | 1.29 nM | 7.79 nM |  |  | 
64C10G1-VH1VL2 (Fab, V domains shown, Humanized Fab, human gamma 1 and kappa constant domains; also called 64C10G1-VH1VL2(Fab)) VH: EVQLVESGGGLVQPGGSLRLSCAASGFTFSSYAMSWVRQAPGKGLEWVATISDGGSDAYYPDNVKGRFTISRDNAKNSLYLQMNSLRAEDTAVYYCARDYYGSGYEDSPMDYWGQGTLVTVSS VL: DIQMTQSPSSLSASVGDRVTITCKASQDINKYIAWYQQKPGKAPKLLIHYTSTLQPGVPSRFSGSGSGTDFTFTISSLQPEDFATYYCLQYDNLYTFGGGTKLEIK |  | 1.92 nM | 0.00515 s⁻¹ | 2.69e+06 M⁻¹ s⁻¹ | 1.92 nM | 0.00515 s⁻¹ | 2.69e+06 M⁻¹ s⁻¹ | 1.23 nM | 7.02 nM |  |  | 

Continued, values first:

IC50 (human CXCL13 [1]) | Kd (human CXCL13 [2]) | koff (human CXCL13 [2]) | kon (human CXCL13 [2]) | Kd (human CXCL13 [3]) | koff (human CXCL13 [3]) | kon (human CXCL13 [3]) | EC50 (human CXCL13 [4]) | IC50 (human CXCL13 [5]) | Kd (human CXCL13 [6]) | koff (human CXCL13 [6]) | kon (human CXCL13 [6]) | Binder
7.64 µg/mL |  |  |  |  |  |  |  |  |  |  |  | 408E3F3 chimeric human IgG1 antibody (antibody, V domains shown, Chimeric human IgG1) VH: HVTLRESGPGVLQPSKTLSLTCSFSGFSLSTSAMVVSWIRQSSGMSLEWLAAIDWEGDKYYNPSLESRLTVSRDISDTQVFLRITSVDVADTATYYCAVMSSADSHSVLDAWGQGVSVTVSS VL: DIKMTQSPSFLSASVGDRVTINCKASQNIHNYLNWYQQKFGEAPRLLIYNTNNLQTGIPSRFSGSGSGTDFTLTISSLQPEDVATYFCLQHSSSLTFGSGTKLEIN
 | 0.426 nM | 0.00136 s⁻¹ | 3.2e+06 M⁻¹ s⁻¹ | 0.619 nM | 0.00125 s⁻¹ | 2.02e+06 M⁻¹ s⁻¹ | 0.974 nM | 11.2 nM |  |  |  | 71F4A3-VH1VL1 (Hz71F4) Fab (Fab, V domains shown, Humanized Fab, human gamma 1 and kappa constant domains) VH: EVQLVESGGGLVQPGGSLRLSCAASGIDFSRYWMSWVRQAPGKGLEWVAEINPDSSTINYAPSLKDRFTISRDNAKNSLYLQMNSLRAEDTAVYYCARQDDYEYYAMDYWGQGTTVTVSS VL: DIQMTQSPSSLSASVGDRVTITCKASQDVNTGVAWYQQKPGKAPKLLIYSASYRYTGVPSRFSGSGSGTDFTFTISSLQPEDIATYYCQQYYSTPLTFGGGTKLEIK
 | 0.462 nM | 0.000987 s⁻¹ | 2.14e+06 M⁻¹ s⁻¹ | 0.934 nM | 0.00153 s⁻¹ | 1.64e+06 M⁻¹ s⁻¹ | 0.575 nM | 11.3 nM |  |  |  | 71F4A3-VH3VL1 (Fab, V domains shown, Humanized Fab, human gamma 1 and kappa constant domains) VH: EVQLVQSGGGLVQPGGSLRLSCAASGIDFSRYWMSWVRQAPGKGLEWVGEINPDSSTINYAPSLKDRFTISRDNAKNSLYLQMNSVRAEDTAVYYCARQDDYEYYAMDYWGQGTTVTVSS VL: DIQMTQSPSSLSASVGDRVTITCKASQDVNTGVAWYQQKPGKAPKLLIYSASYRYTGVPSRFSGSGSGTDFTFTISSLQPEDIATYYCQQYYSTPLTFGGGTKLEIK
 | 0.516 nM | 0.00147 s⁻¹ | 2.85e+06 M⁻¹ s⁻¹ | 0.628 nM | 0.00116 s⁻¹ | 1.84e+06 M⁻¹ s⁻¹ | 1.18 nM | 10.7 nM |  |  |  | 71F4A3-VH1VL2 (Fab, V domains shown, Humanized Fab, human gamma 1 and kappa constant domains) VH: EVQLVESGGGLVQPGGSLRLSCAASGIDFSRYWMSWVRQAPGKGLEWVAEINPDSSTINYAPSLKDRFTISRDNAKNSLYLQMNSLRAEDTAVYYCARQDDYEYYAMDYWGQGTTVTVSS VL: DIQMTQSPSSLSASVGDRVTITCKASQDVNTGVAWYQQKPGKAPKLLIYSASYRYTGVPSRFSGSGSGTDFTFTISSVQPEDIATYYCQQYYSTPLTFGGGTKLEIK
15.1 µg/mL |  |  |  |  |  |  |  |  |  |  |  | 19H7E10 chimeric human IgG1 antibody (antibody, V domains shown, Chimeric human IgG1) VH: EVQLQQSGPELVKPGASVKISCQASGYAFSDYYMNWVKQSHGKRLEWIGDINPNNDGTTYNQKFKDKATLTVDKSSSTAYMDLRSLTSEDSAVYYCARLSWSFFAMDYWGQGTSVTVSS VL: DIVMTQSHKFMSTSVGDRVSITCKASQDVSSGVAWYQQKPGQSPKVLIYSASHRHTGVPDRFTASGSGTDFTFTISSVQAEDLAVYYCQQYYNTPWTFGGGTKLEIK
 | 0.556 nM | 0.00184 s⁻¹ | 3.3e+06 M⁻¹ s⁻¹ | 0.782 nM | 0.00141 s⁻¹ | 1.8e+06 M⁻¹ s⁻¹ | 1.49 nM | 5.07 nM | 0.154 nM | 0.000285 s⁻¹ | 1.85e+06 M⁻¹ s⁻¹ | 71F4A3 chimeric Fab (Fab, V domains shown, Fab) VH: EVKLLQSGGGLVQPGGSLKLSCAASGIDFSRYWMSWVRRAPGKGLEWIGEINPDSSTINYAPSLKDKFIISRDNAKNTLYLQMSKVRSEDTALYYCARQDDYEYYAMDYWGQGTSVTVSS VL: DIVMTQSHKSMSTSVGDRVSITCKASQDVNTGVAWYRQKPGQSPKLLIYSASYRYTGVPDRFTGSGSGTDFTFTISSVQAEDLAVYYCQQYYSTPLTFGAGTKLELK
